In article PMC5767323, “Differential NtcA Responsiveness to 2-Oxoglutarate Underlies the Diversity of C/N Balance Regulation in Prochlorococcus” (Frontiers in Microbiology, 2018) one finds Kd data, which are given here for 6 molecules.

Data set [1] addresses T1, NtcA (Prochlorococcus marinus, UniProt Q7TUN1).
T1 construct: recombinant His6-tagged NtcA (pET-15b)
T1 sequence (Q7TUN1 1-222): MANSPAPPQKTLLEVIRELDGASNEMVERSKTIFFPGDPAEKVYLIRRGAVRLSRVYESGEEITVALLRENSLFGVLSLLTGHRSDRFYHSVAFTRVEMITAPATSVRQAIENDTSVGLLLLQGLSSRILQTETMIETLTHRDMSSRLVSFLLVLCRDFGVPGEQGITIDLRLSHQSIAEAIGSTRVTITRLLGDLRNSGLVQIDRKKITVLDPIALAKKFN
The data set is described as follows: ITC of NtcA-dsDNA at varied 2OG, ternary equilibrium fit; supported by SPR and EMSA. It counts as binding.

Data set [2] has as its target T2, NtcA (Prochlorococcus marinus, UniProt Q7TUG3).
T2 construct: recombinant His6-tagged NtcA (pET-15b)
T2 sequence (Q7TUG3 1-244): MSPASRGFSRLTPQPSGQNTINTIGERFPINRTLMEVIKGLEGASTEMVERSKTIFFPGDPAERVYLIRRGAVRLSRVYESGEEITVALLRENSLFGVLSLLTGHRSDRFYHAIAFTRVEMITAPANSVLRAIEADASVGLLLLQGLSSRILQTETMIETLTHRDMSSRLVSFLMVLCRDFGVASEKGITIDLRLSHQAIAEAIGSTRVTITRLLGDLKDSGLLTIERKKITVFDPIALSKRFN
The data set is described as follows: ITC of NtcA-dsDNA at varied 2OG, ternary equilibrium fit. It counts as binding.

Data set [3] has as its target T3, NtcA (Prochlorococcus marinus, UniProt Q7VDU1).
T3 construct: recombinant His6-tagged NtcA (pET-15b)
T3 sequence (Q7VDU1 1-244): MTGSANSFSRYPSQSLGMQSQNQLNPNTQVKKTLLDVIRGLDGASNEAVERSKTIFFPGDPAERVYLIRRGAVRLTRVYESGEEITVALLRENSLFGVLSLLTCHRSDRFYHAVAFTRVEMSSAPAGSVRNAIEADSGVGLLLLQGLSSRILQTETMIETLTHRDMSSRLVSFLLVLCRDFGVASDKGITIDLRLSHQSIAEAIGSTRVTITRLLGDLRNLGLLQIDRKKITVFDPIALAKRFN
In words: ITC of NtcA-dsDNA at varied 2OG, ternary equilibrium fit; supported by SPR and EMSA. It counts as binding. For orientation: A gel shift assay detects complexes by their altered migration in electrophoresis.

Data set [4] addresses T4, NtcA SS120 (Prochlorococcus sp. SS120) (UniProt Q7VDU1).
T4 sequence: T3 sequence (Q7VDU1 1-244)
The data set is described as follows: ITC. As to conditions: ITC: 50 mM Hepes, 350 mM NaCl, pH 7.5, 25 C, 0-10 mM 2OG, SPR: Biacore X, CM5 with neutravidin, buffer not given, EMSA: as Napolitano et al. 2012, 1 uM ….

Another data set addresses T5, NtcA MIT9313 (Prochlorococcus sp. MIT9313, UniProt Q7TUN1 1-222).
T5 sequence: T1 sequence (Q7TUN1 1-222)
The data set is described as follows: ITC; saturating 2OG (Kd,eff = Kd/alpha, extrapolated from fit); ITC: 50 mM Hepes, 350 mM NaCl, pH 7.5, 25 C, 0-10 mM 2OG; SPR: Biacore X, CM5 with neutravidin, 25 C, buffer not given; EMSA: as Napolitano et al. 2012, 1 uM NtcA. As to conditions: protein: recombinant; tags: His6 (pET-15b); chain copies: 2; blunt.

The next data set addresses T6, NtcA SS120 (Prochlorococcus sp. SS120, UniProt Q7VDU1 1-244).
T6 sequence: T3 sequence (Q7VDU1 1-244)
The description is as above. To be noted: protein: recombinant; tags: His6 (pET-15b); chain copies: 2; blunt.

For data set [5], the target named is T7, NtcA MED4 (Prochlorococcus sp. MED4, UniProt Q7TUG3 1-244).
T7 sequence: T2 sequence (Q7TUG3 1-244)
The description is as above. To be noted: protein: recombinant; tags: His6 (pET-15b); chain copies: 2; blunt.

Data set [6] has as its target T7, NtcA MED4. In words: ITC; independent of 2OG; ITC: 50 mM Hepes, 350 mM NaCl, pH 7.5, 25 C, 0-10 mM 2OG; SPR: Biacore X, CM5 with neutravidin, 25 C, buffer not given; EMSA: as Napolitano et al. 2012, 1 uM NtcA. To be noted: protein: recombinant; tags: His6 (pET-15b); chain copies: 2; blunt. Background: In ITC the heat of successive injections is recorded.

The Kd is the constant that tells how readily two partners part at equilibrium. Consider `O=C(O)CCC(=O)C(=O)O` [2OG, 2-oxoglutarate], for which the Kd at NtcA [1] was determined as 19000 ± 2000 µM; on NtcA [2] it was 36000 ± 3000 µM; on NtcA [3] it was 42000 ± 3000 µM.

Regarding “CCAATAAGCCCCACACGGCATTATTG (double strand) [DNA4, glnA promoter SS120 mutated]”, the Kd in data set [4] was determined as 10 µM.

B1: DNA1, glnA promoter MIT9313 wt (dsDNA)
DNA 1: TAGAAGGTACCTGTTGCTACAAAAAG
DNA 2: CTTTTTGTAGCAACAGGTACCTTCTA
With B1, in the data set with NtcA MIT9313, the Kd is 0.06 ± 0.01 µM.

B2: DNA3, glnA promoter SS120 wt (dsDNA)
DNA 1: CCAATAGTCACAAAAAGTACTTATTG
DNA 2: CAATAAGTACTTTTTGTGACTATTGG
Take B2: the dissociation constant (Kd) in the data set with NtcA SS120 was 0.8 ± 0.2 µM.

B3: DNA5, glnA promoter MED4 wt (dsDNA)
DNA 1: AAAAAGTTACCTTTGATACATAAT
DNA 2: ATTATGTATCAAAGGTAACTTTTT
Regarding B3, the dissociation constant Kd with NtcA MED4 [5] was 0.5 ± 0.1 µM.

B4: DNA6, glnA promoter MED4 mutated (dsDNA)
DNA 1: AAAAACTAACCTTTGACTGATAAT
DNA 2: ATTATCAGTCAAAGGTTAGTTTTT
In the case of B4, the dissociation constant (Kd) in the data set with NtcA MED4 [6] is 9.5 ± 0.9 µM.
